Results taken from the supplement of paper PMC9732359.
± gives the uncertainty stated by the source.

Assay: protein stability index of a GFP-peptide fusion (yeast GPS) (PSI 1-4); higher = more stable; sorted into four equal gates, so the index is relative within each strain
Conditions: pdr5∆
Procedure, shortened: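 Peptides tiling yeast proteins in 17-residue segments were fused downstream of GFP, with Cherry expressed from the same plasmid. As a pooled library in yeast, mid-log cultures grown in leucine-free medium were sorted into four equal gates by GFP/Cherry fluorescence ratio. Gate plasmids were PCR-amplified and Illumina-sequenced, and barcodes linked reads to strains. Each peptide received a protein stability index equal to the sum of each gate's read frequency times its gate number.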

Sequence	protein stability index
EEDVYLDPLARVSKDKK [FAS2]	3.29 ± 0.11
EEEKELTEEELKTRYVG [RPN11]	3.44 ± 0.12
EEGEYKNAANTEGHKGH [ISW2]	3.16 ± 0.069
EEIEPKLEKLRNEKRMF [SMC2]	3.21 ± 0.074
EEIFFKSVRILKNKAEY [RPC40]	3.2 ± 0.085
EEIKQSARNYDKFKLNE [SMC1]	3.24 ± 0.073
EEIKTVDPASAPNHSPE [RRP6]	2.96 ± 0.072
EEKEEEAAEESDDDMGF [RPP1B]	3.23 ± 0.065
EEKLKANKEKKKAEKAA [RPL24A]	3.33 ± 0.11
EEKPDVTYSDVGGCKDQ [RPT1]	3.65 ± 0.19
EELRDLYQTYHVLVGDL [FAS1]	2.54 ± 0.054
EENEDNDGNNRTNNVPM [NUT1]	3.39 ± 0.11
EERERKDQYVPEVSALD [RPS17A]	3.13 ± 0.057
EESIKIYPLIKPGSTVM [UBP6]	3.01 ± 0.093
EEYKQLVKDRKFLREVF [RPO21]	3.49 ± 0.076
EFANFELKDICSFAVTK [YML103C/NUP188]	2.29 ± 0.065
EFDSDDDDISDDEEDEI [RPN4]	3.28 ± 0.09
EFEKKLQETLNKSTSSE [YIL149C/MLP2]	2.66 ± 0.11
EFIAHRLGLIPLQSMDI [RPB3]	2.04 ± 0.17
EFLINEGTPINNVYFAA [RPN14]	2.17 ± 0.052
EFSPRLHNIWSNGLLSI [YML103C/NUP188]	1.91 ± 0.059
EFVDDYTVNVVDVFAMP [RPN11]	3.01 ± 0.17
EGAARGTSVYLVDKRID [DIS3]	3.33 ± 0.14
EGGKNQAELLQLAVKII [YJL039C/NUP192]	3.28 ± 0.081
EGIEIYDRKKLPRKEVD [RPC11]	2.98 ± 0.097
EGKSVDELITEGNEKLA [RPP2A]	3.23 ± 0.16

Sequence	protein stability index
EGLTYKYPARRIHTNDN [SSN3]	2.89 ± 0.073
EGNAQLVAIFGGQGNTD [FAS1]	1.94 ± 0.094
EGNQIIVFVHSRKETSR [BRR2]	2.28 ± 0.054
EGRSFTKAIEDAKKEMK [YLR335W/NUP2]	2.7 ± 0.062
EGVEYLREYLNLPEHIV [RPS10A]	3.32 ± 0.078
EGWPKFQDTLYKKIPLL [QCR10]	1.63 ± 0.079
EHFSDEETYEEKPQFKD [RPO26]	3.35 ± 0.2
EHKQLVAEIVQNVISLG [RPC82]	1.46 ± 0.13
EHRIRVFFDKRIGQEVD [RPS6A]	3.09 ± 0.14
EHTDVIDELIDTKLRLE [YIL149C/MLP2]	3 ± 0.059
EHWKVRNFKKANLVNKE [BRN1]	1.5 ± 0.051
EIAQANSRNAIRKLVKN [RPL19A]	3.01 ± 0.083
EIDDTEAEVTAEVNGGD [BRR2]	2.79 ± 0.12
EIEDGQDGGVTPYSNES [RPO21]	3.35 ± 0.069
EIEPILMEIHNILKVDS [RGR1]	1.84 ± 0.1
EIGLLGGRYVYPVHEAH [SNU114]	2.55 ± 0.091
EIGLLPEDALVNDFSDI [SMC3]	2.91 ± 0.12
EIINNKTSSQTSLSSKD [YMR153W/NUP53]	2.12 ± 0.073
EIKVGKQRFQGCNNLIK [ARP9]	3.06 ± 0.13
EILGINLANEQPVLEKP [SIR4]	3.2 ± 0.052
EILILINDPTNKEYTLV [SIN4]	2.05 ± 0.067
EIMEERNVEQKLNELDE [NNF1]	2.94 ± 0.077
EIPTQIYRTTRQDGSYT [ARP9]	3.17 ± 0.086
EIRRSLSLNLGDYGSAK [POP5]	3.06 ± 0.09
EISASESKFILEALRQN [RRP45]	2.98 ± 0.12
EISRLKTSLSIKVENLN [SMC2]	2.55 ± 0.13

Sequence	protein stability index
EKENRFEIVDREKNSLE [SMC4]	2.93 ± 0.11
EKFSEKMLKIWTMAFRT [ECM29]	2.09 ± 0.1
EKGKKVTGFKDEVLETV [RPS1A]	1.31 ± 0.1
EKIDGMDVDSVKTTLVS [RPC82]	2.78 ± 0.12
EKIWFAISKENLCGDIS [SIR3]	2.44 ± 0.078
EKKLMQDNKQLYQIWIV [YDL116W/NUP84]	1.83 ± 0.078
EKKPAAKKTSTSVDGKK [HTB2]	2.94 ± 0.15
EKLAVSALEQAIIYQRG [YGL100W/SEH1]	2.38 ± 0.11
EKLLETNVSKQNDFLFS [ECM29]	2.97 ± 0.093
EKLLQQDREITNWARTT [MED8]	1.77 ± 0.087
EKLYIFYKLNMPDEFNT [SRP72]	1.96 ± 0.053
EKNEKEREIKRRKFDPS [UBP6]	3.25 ± 0.051
EKPFNENRFQDTLLLLP [POP4]	2.58 ± 0.076
EKSLLPKIETNVYVGMT [ISW2]	2.97 ± 0.11
EKSRISERDSKDRYING [YMR129W/POM152]	3.08 ± 0.062
EKVILVQEQLSKNRIIV [RET1]	1.38 ± 0.084
EKVTIAPLVLLSALDHY [RPN8]	1.63 ± 0.031
ELDAQTLPGDDELDQEI [RPT5]	3.26 ± 0.12
ELEEQESESERKYDLFQ [SMC2]	3.28 ± 0.11
ELHKKLVEAAKLLKIPK [YDL116W/NUP84]	2.24 ± 0.15
ELIKNYITARIMAKRPF [FAS1]	2.58 ± 0.26
ELLDFLTSNLSNYSRTM [YJL039C/NUP192]	2.54 ± 0.079
ELLEHIETIGHLITKEE [RPN5]	3.03 ± 0.11
ELNDIDTKIDQVNGNIR [SMC3]	3.34 ± 0.12
ELNSSEDILEDMNSNLQ [SMC1]	3.32 ± 0.072
ELNYFVGCKNLERLTLV [GRR1]	2.83 ± 0.093

Sequence	protein stability index
ELPLEDFKAKYCDSMGR [RPB5]	3.29 ± 0.14
ELQIFKTANSSSDAFEK [YIL149C/MLP2]	2.73 ± 0.049
ELQKLVHDLNKYKSNTN [SMC2]	3.31 ± 0.071
ELRRPGVDNLRRMGILK [RPO31]	2.98 ± 0.067
ELRYQSHILNSHSLALN [DSN1]	2.66 ± 0.058
ELSNELSRLSTASKIIV [MED1]	2.55 ± 0.089
ELTKSLSIAFENGDYAA [RPN12]	3 ± 0.11
ELVFSKGVYLILSEILC [YML103C/NUP188]	1.54 ± 0.048
ELVVFLPALCKKMGVPY [RPL8A]	2.83 ± 0.11
EMGKLRERDITSLFHKF [RRI2]	1.83 ± 0.071
EMGKTDKSTKTAEAPTL [YOR098C/NUP1]	3.25 ± 0.15
EMTLPTSPLYMDPGAPL [SSN2]	2.8 ± 0.11
ENANADLENKFNRLKKQ [YIL149C/MLP2]	3.07 ± 0.057
ENDTNMNETLNLKVELK [SMC4]	3.17 ± 0.084
ENEEFITFLQTLYIGNT [ECM29]	2.42 ± 0.036
ENIQEGTSLTIQHIAAA [CDC53]	3.11 ± 0.086
ENLADLDYQIGNSESKV [LIN1]	3.42 ± 0.11
ENLFSKEEVCQGMEGTV [YMR129W/POM152]	2.95 ± 0.073
ENNYKKRLLGTAFKSSP [RPS23A]	2.6 ± 0.049
ENRKKDESDSENDIEIK [YLR335W/NUP2]	2.23 ± 0.15
ENSFYKKEASKTKWDRK [POP1]	2.37 ± 0.063
ENSGKEMDEKSYEKNED [LIN1]	3.29 ± 0.12
ENSTSNSKPEKSSDSND [YLR335W/NUP2]	3.32 ± 0.16
ENTVGLISGAGANPRVL [RPN10]	1.46 ± 0.057
ENYDAKIELEKKEKWAR [YIL149C/MLP2]	3.2 ± 0.12
